According to patent US20040146968A1:

Legend:
[1] = molecular target: sDR5 protein (extracellular domain of TRAIL receptor DR5, residues 1-130) (human); test: cell-based or functional assay
[2] = molecular target: sDR5 protein (extracellular domain of TRAIL receptor DR5, residues 1-130) (human); test: SPR, BIAcore 2000, sDR5 immobilised
[3] = molecular target: sDR5 protein (extracellular domain of TRAIL receptor DR5, residues 1-130) (human); test: SPR, BIAcore 2000, sDR5 amine-coupled to chip, TRAIL 300-900 nM as analyte, 1:1 model, 25° C., apparent KD

Substance | cytotoxic activity on human SK-HEP-1 hepatoma cells (MTT viability, concentration giving 50% cell death) [1] [ng/mL] | fold change of apparent KD against wild-type TRAIL [2] [fold] | Kd [3] [nM] | cytotoxic activity on human SK-HEP-1 hepatoma cells (MTT viability, concentration giving 50% reduction of viability) [1] [ng/mL]
TRAIL deletion mutant protein containing the deletion of residues 132-135 in the AA″ loop (ligand) | > 1000 | 18 | 294 | –
wild-type TRAIL protein (human, residues 114-281) (ligand) | – | – | 15.9 | 50
